Results reported in patent US9340579B2, “DPP-4 inhibitor” (NIPPI, INCORPORATED, priority 2011, dated 2016).
Square brackets hold non-standard residues; d marks the D form. Ends that are not written are not given here. Hyp = O=C(O)[C@@H]1C[C@@H](O)CN1

B1: Gly-Ala-Ile-Gly-Pro-Ala (peptide)
peptide: GAIGPA
B2: Gly-Pro-Ala-Gly-Pro-Hyp (peptide)
peptide: GPAGP[Hyp]
B3: Gly-Pro-Ala-Gly-Pro (peptide)
peptide: GPAGP
B4: Gly-Pro-Pro (peptide)
peptide: GPP
B5: Gly-Ala-Hyp (peptide)
peptide: Gly-Ala-[Hyp]
B6: Gly-Pro-Glu (peptide)
peptide: GPE
B7: Gly-Pro-Ile-Gly-Pro-Val (peptide)
peptide: GPIGPV
B8: Gly-Pro-Leu-Gly-Pro-Val (peptide)
peptide: GPLGPV
B9: Gly-Pro-Ala-Gly-Pro-Ile (peptide)
peptide: GPAGPI
B10: Gly-Ala-Val-Gly-Pro (peptide)
peptide: GAVGP
B11: Gly-Pro-Gln (peptide)
peptide: GPQ
B12: Gly-Pro-Ala-Gly-Pro-Arg (peptide)
peptide: GPAGPR
B13: Gly-Ala (peptide)
peptide: GA
B14: Gly-Pro-Hyp (peptide)
peptide: Gly-Pro-[Hyp]
B15: Gly-Ala-Val-Gly-Pro-Ala (peptide)
peptide: GAVGPA
B16: Gly-Ala-Ile-Gly-Pro-Ser (peptide)
peptide: GAIGPS
B17: Phe-Hyp (peptide)
peptide: Phe-[Hyp]
B18: Leu-Pro-Gly (peptide)
peptide: LPG
B19: Ala-Hyp-Gly (peptide)
peptide: Ala-[Hyp]-Gly
B20: Pro-Hyp (peptide)
peptide: Pro-[Hyp]
B21: Leu-Hyp (peptide)
peptide: Leu-[Hyp]
B22: Ala-Pro-Gly (peptide)
peptide: APG
B23: Ala-Hyp (peptide)
peptide: Ala-[Hyp]
B24: Leu-Hyp-Gly-Pro-Ala (peptide)
peptide: L[Hyp]GPA
B25: Leu-Pro-Gly-Pro-Ala (peptide)
peptide: LPGPA
B26: Leu-Pro (peptide)
peptide: LP
B27: Pro-Hyp-Gly (peptide)
peptide: Pro-[Hyp]-Gly
B28: Hyp-Gly (peptide)
peptide: [Hyp]-Gly
B29: Leu-Hyp-Gly (peptide)
peptide: Leu-[Hyp]-Gly
B30: Ile-Hyp-Gly (peptide)
peptide: Ile-[Hyp]-Gly

biological target: T1, DPP-4 (manufactured by Sigma, derived from porcine kidney) (porcine, UniProt P22411 38-766, limits assumed); experiment: cell-based or functional assay
T1 sequence (P22411 38-766 limits assumed): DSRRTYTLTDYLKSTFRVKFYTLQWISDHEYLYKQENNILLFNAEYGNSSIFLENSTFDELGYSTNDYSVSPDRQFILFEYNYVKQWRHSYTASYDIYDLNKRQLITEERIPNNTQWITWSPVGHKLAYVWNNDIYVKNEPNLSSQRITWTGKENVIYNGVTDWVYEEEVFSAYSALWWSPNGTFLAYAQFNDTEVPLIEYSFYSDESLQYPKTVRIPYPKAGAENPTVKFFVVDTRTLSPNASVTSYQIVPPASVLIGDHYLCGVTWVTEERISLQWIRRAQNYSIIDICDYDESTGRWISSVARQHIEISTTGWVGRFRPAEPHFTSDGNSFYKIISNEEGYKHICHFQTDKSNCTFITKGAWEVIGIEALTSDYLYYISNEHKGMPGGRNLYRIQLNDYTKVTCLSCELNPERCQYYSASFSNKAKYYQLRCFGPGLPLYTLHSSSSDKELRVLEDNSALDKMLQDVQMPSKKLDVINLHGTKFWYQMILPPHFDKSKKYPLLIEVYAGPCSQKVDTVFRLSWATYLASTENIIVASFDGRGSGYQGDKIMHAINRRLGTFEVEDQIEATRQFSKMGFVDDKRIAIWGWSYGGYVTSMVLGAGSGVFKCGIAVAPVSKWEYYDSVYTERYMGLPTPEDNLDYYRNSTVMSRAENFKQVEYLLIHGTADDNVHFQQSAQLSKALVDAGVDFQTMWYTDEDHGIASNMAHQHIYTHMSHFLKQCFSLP

Binder	IC50 value [µM]	Inhibition rate (%) at 0.35 mg/ml time [%]
B1	285	71.5
B2	70	–
B3	60	95.8
B4	78200	10.2
B5	–	0
B6	194	86.4
B7	9.3	–
B8	24	–
B9	50	–
B10	1200	40.9
B11	310	80.2
B12	80	–
B13	3340	42.5
B14	–	0
B15	437	63.7
B16	314	70.4

biological target: T1, DPP-4 (manufactured by Sigma, derived …); experiment: cell-based or functional assay; remark: another data set of the same source

Binder	Inhibition rate (%) at 0.35 mg/ml time [%]	IC50 value [µM]
B17	0	–
B18	–	50
B19	14.6	9450
B20	0	–
B21	48.6	1320
B22	98.7	30
B23	0	–
B24	52.1	830
B25	94.9	63
B26	92.1	110
B27	27.2	4640
B28	0	–
B29	89.3	130
B30	71	500
